# Laboratory results: the Immune Epitope Database (IEDB)
# Tests used:
# HLA-A*03:01 [1] = test: IEDB peptide-MHC binding, purified MHC/competitive/fluorescence; ≥ and ≤ were set here for values at or beyond the usual limits of such assays
# HLA-A*11:01 [2] = test: as above
# HLA-B*57:01 [3] = test: IEDB peptide-MHC binding, purified MHC/competitive/radioactivity; filed as Kd, often an IC50 or EC50 that approximates it; ≥ and ≤ were set here for values at or beyond the usual limits of such assays
# HLA-B*58:01 [4] = test: as above
# HLA-A*02:01 [5] = test: as above
# HLA-A*02:03 [6] = test: as above
# HLA-A*02:06 = test: as above
# HLA-A*02:17 = test: as above
# HLA-A*24:02 = test: IEDB peptide-MHC binding, purified MHC/competitive/fluorescence; ≥ and ≤ were set here for values at or beyond the usual limits of such assays
# HLA-A*02:01 [7] = test: as above
# HLA-A*32:01 = test: IEDB peptide-MHC binding, purified MHC/competitive/radioactivity; filed as Kd, often an IC50 or EC50 that approximates it; ≥ and ≤ were set here for values at or beyond the usual limits of such assays
# HLA-B*48:01 = test: IEDB peptide-MHC binding, purified MHC/direct/fluorescence; filed as Kd, often an IC50 or EC50 that approximates it; ≥ and ≤ were set here for values at or beyond the usual limits of such assays
# HLA-B*08:01 = test: IEDB peptide-MHC binding, purified MHC/competitive/radioactivity; filed as Kd, often an IC50 or EC50 that approximates it; ≥ and ≤ were set here for values at or beyond the usual limits of such assays
# HLA-A*69:01 [8] = test: IEDB peptide-MHC binding, purified MHC/direct/fluorescence; filed as Kd, often an IC50 or EC50 that approximates it; ≥ and ≤ were set here for values at or beyond the usual limits of such assays
# HLA-A*31:01 [9] = test: IEDB peptide-MHC binding, purified MHC/competitive/radioactivity; filed as Kd, often an IC50 or EC50 that approximates it; ≥ and ≤ were set here for values at or beyond the usual limits of such assays; settings: source organism: Vaccinia virus WR
# HLA-A*33:01 = test: as above; settings: source organism: Vaccinia virus WR
# HLA-A*68:01 = test: as above; settings: source organism: Vaccinia virus WR
# HLA-A*01:01 = test: IEDB peptide-MHC binding, purified MHC/direct/fluorescence; filed as Kd, often an IC50 or EC50 that approximates it; ≥ and ≤ were set here for values at or beyond the usual limits of such assays
# HLA-A*69:01 [10] = test: IEDB peptide-MHC binding, purified MHC/competitive/fluorescence; filed as Kd, often an IC50 or EC50 that approximates it; ≥ and ≤ were set here for values at or beyond the usual limits of such assays; settings: source organism: Homo sapiens
# HLA-B*15:01 [11] = test: as above
# HLA-B*27:03 = test: as above; settings: source organism: Homo sapiens
# HLA-B*39:01 = test: as above; settings: source organism: Homo sapiens
# HLA-B*46:01 = test: as above; settings: source organism: Homo sapiens
# HLA-B*51:01 = test: as above; settings: source organism: Homo sapiens
# HLA-B*57:01 [12] = test: as above
# HLA-B*18:01 = test: IEDB peptide-MHC binding, purified MHC/direct/fluorescence; filed as Kd, often an IC50 or EC50 that approximates it; ≥ and ≤ were set here for values at or beyond the usual limits of such assays
# HLA-A*02:01 [13] = test: IEDB peptide-MHC binding, purified MHC/competitive/fluorescence; filed as Kd, often an IC50 or EC50 that approximates it; ≥ and ≤ were set here for values at or beyond the usual limits of such assays; settings: source organism: human gammaherpesvirus 4
# HLA-A*02:03 [14] = test: as above; settings: source organism: human gammaherpesvirus 4
# HLA-A*68:02 = test: IEDB peptide-MHC binding, purified MHC/competitive/radioactivity; filed as Kd, often an IC50 or EC50 that approximates it; ≥ and ≤ were set here for values at or beyond the usual limits of such assays; settings: source organism: Dengue virus 4 Philippines/H241/1956
# HLA-A*02:01 [15] = test: IEDB peptide-MHC binding, purified MHC/direct/fluorescence; filed as Kd, often an IC50 or EC50 that approximates it; ≥ and ≤ were set here for values at or beyond the usual limits of such assays; settings: source organism: Escherichia coli O157:H7
# HLA-A*03:01 [16] = test: as above; settings: source organism: Escherichia coli O157:H7
# HLA-A*11:01 [17] = test: as above; settings: source organism: Escherichia coli O157:H7
# HLA-A*31:01 [18] = test: as above; settings: source organism: Escherichia coli O157:H7
# HLA-B*27:05 = test: as above; settings: source organism: Escherichia coli O157:H7
# HLA-B*40:01 = test: as above; settings: source organism: Escherichia coli O157:H7
# HLA-B*58:01 [19] = test: as above; settings: source organism: Escherichia coli O157:H7
# HLA-B*15:17 = test: IEDB peptide-MHC binding, purified MHC/competitive/fluorescence; filed as Kd, often an IC50 or EC50 that approximates it; ≥ and ≤ were set here for values at or beyond the usual limits of such assays; settings: source organism: Escherichia coli str. K-12 substr. DH10B
# HLA-B*15:01 [20] = test: IEDB peptide-MHC binding, purified MHC/competitive/radioactivity; filed as Kd, often an IC50 or EC50 that approximates it; ≥ and ≤ were set here for values at or beyond the usual limits of such assays; settings: source organism: Dengue virus 2 Jamaica/1409/1983
# [21] = source organism: Dengue virus 3 Martinique/1243/1999
# [22] = source organism: Dengue virus 4 Dominica/814669/1981
# [23] = source organism: Dengue virus 4 Philippines/H241/1956
# [24] = source organism: Zaire ebolavirus
# [25] = source organism: Dengue virus 2 Jamaica/1409/1983
# [26] = source organism: Dengue virus 1 Singapore/S275/1990
# [27] = source organism: Dengue virus 1 Brazil/97-11/1997
# [28] = source organism: Vaccinia virus Copenhagen
# [29] = source organism: Vaccinia virus
# [30] = source organism: Sudan ebolavirus
# [31] = source organism: Dengue virus 1 Nauru/West Pac/1974
# [32] = source organism: Yellow fever virus
# [33] = source organism: Escherichia coli O157:H7
# [34] = source organism: Escherichia coli str. K-12 substr. DH10B
sequence,measurement,setting,value
ASLTPKAQR,IC50,HLA-A*03:01 [1]; source organism: Variola virus,2.32 µM
same,IC50,HLA-A*11:01 [2]; source organism: Variola virus,290 nM
ASSLLRNDVP,Kd,HLA-B*57:01 [3]; [21],11.6 µM
same,Kd,HLA-B*58:01 [4]; [21],745 nM
ATGPILTLW,Kd,HLA-B*57:01 [3]; [22],0.00807 µM
same,Kd,HLA-B*58:01 [4]; [22],13.1 nM
AVASGLLWV,Kd,HLA-A*02:01 [5]; [23],18.9 nM
same,Kd,HLA-A*02:03 [6]; [23],1.89 nM
same,Kd,HLA-A*02:06; [23],11.7 nM
same,Kd,HLA-A*02:17; [23],3300 nM
DQEKKILMN,IC50,HLA-A*03:01 [1]; [24],≥ 386 µM
same,IC50,HLA-A*11:01 [2]; [24],≥ 193000 nM
same,IC50,HLA-A*24:02; [24],≥ 303 µM
ERSWNSGHEW,Kd,HLA-B*58:01 [4]; [25],135 nM
FLAHYIGTSL,Kd,HLA-A*02:03 [6]; [21],3.3 nM
same,Kd,HLA-A*02:17; source organism: Dengue virus 3 China/80-2/1980,22.5 nM
FLDLPLPWL,Kd,HLA-A*02:01 [5]; [25],10.3 nM
same,Kd,HLA-A*02:06; [25],127 nM
same,Kd,HLA-A*02:17; [25],9.46 nM
FLNEDHWFS,Kd,HLA-A*02:01 [5]; [25],4 nM
same,Kd,HLA-A*02:17; [25],185 nM
GIYIEGLMH,IC50,HLA-A*02:01 [7]; [24],≥ 180 µM
same,IC50,HLA-A*03:01 [1]; [24],16.1 µM
same,IC50,HLA-A*11:01 [2]; [24],9230 nM
GLLCLTLFV,Kd,HLA-A*02:01 [5]; [23],2.44 nM
same,Kd,HLA-A*02:06; [23],16.4 nM
same,Kd,HLA-A*02:17; [23],8.47 nM
GLLFMILTV,Kd,HLA-A*02:01 [5]; [26],42.9 nM
same,Kd,HLA-A*02:17; [26],14300 nM
same,Kd,HLA-A*32:01; [27],≥ 77800 nM
GLNTFTNMEV,Kd,HLA-A*02:01 [5]; [23],3.82 nM
same,Kd,HLA-A*02:03 [6]; [27],15.3 nM
same,Kd,HLA-A*02:17; [23],421 nM
GQPIPIAGL,Kd,HLA-B*48:01; source organism: Mycobacterium tuberculosis C,0.299 µM
HSFEEMYRH,IC50,HLA-A*03:01 [1]; [24],49.4 µM
same,IC50,HLA-A*11:01 [2]; [24],3290 nM
ILLTAVAPSM,Kd,HLA-A*02:01 [5]; [25],2490 nM
same,Kd,HLA-A*02:17; [25],5960 nM
same,Kd,HLA-B*08:01; [25],8.71 µM
IMAVGLVSL,Kd,HLA-A*69:01 [8]; source organism: dengue virus type 4,≥ 20 µM
same,Kd,HLA-A*02:03 [6]; [23],0.16 nM
same,Kd,HLA-A*02:17; [23],802 nM
IMAVGMVSI,Kd,HLA-A*02:03 [6]; [25],8.29 nM
same,Kd,HLA-A*02:17; [25],785 nM
same,Kd,HLA-A*32:01; [25],20.4 nM
ITGGRRTRR,IC50,HLA-A*02:01 [7]; [24],≥ 177 µM
same,IC50,HLA-A*03:01 [1]; [24],6.85 µM
same,IC50,HLA-A*11:01 [2]; [24],9090 nM
KLARASFIEV,Kd,HLA-A*02:01 [5]; [26],14.9 nM
same,Kd,HLA-A*02:03 [6]; [27],20.1 nM
same,Kd,HLA-A*02:06; [27],22 nM
same,Kd,HLA-A*02:17; [26],705 nM
KSISKSNAK,IC50,HLA-A*03:01 [1]; [28],3.02 µM
same,IC50,HLA-A*11:01 [2]; [28],1680 nM
same,Kd,HLA-A*31:01 [9],0.454 nM
same,Kd,HLA-A*33:01,≥ 33.9 µM
same,Kd,HLA-A*68:01,101 nM
KTQAIDGEF,Kd,HLA-A*32:01; [22],640 nM
same,Kd,HLA-B*58:01 [4]; [22],287 nM
LMLLALIAVL,Kd,HLA-A*02:01 [5]; [26],94.7 nM
same,Kd,HLA-A*02:17; [26],2170 nM
same,Kd,HLA-B*08:01; [27],2.25 µM
LRYLLFGIK,IC50,HLA-A*02:01 [7]; [29],≥ 825 µM
same,IC50,HLA-A*03:01 [1]; [29],15.4 µM
same,IC50,HLA-A*11:01 [2]; [29],≥ 128000 nM
same,IC50,HLA-A*24:02; [29],13.6 µM
NTAINFFLY,Kd,HLA-A*01:01; source organism: Homo sapiens,0.0036 µM
same,Kd,HLA-A*69:01 [10],≥ 20 µM
same,Kd,HLA-B*15:01 [11]; source organism: Homo sapiens,≥ 20000 nM
same,Kd,HLA-B*27:03,≥ 20 µM
same,Kd,HLA-B*39:01,≥ 20 µM
same,Kd,HLA-B*46:01,≥ 20 µM
same,Kd,HLA-B*51:01,≥ 20 µM
same,Kd,HLA-B*57:01 [12]; source organism: Homo sapiens,≥ 20000 nM
RISDRATRK,IC50,HLA-A*03:01 [1]; [30],1.86 µM
same,IC50,HLA-A*11:01 [2]; [30],651 nM
RRYGGGLVR,Kd,HLA-B*48:01; source organism: West Nile virus,≥ 20 µM
SESLPIWGI,Kd,HLA-B*18:01; source organism: Cryptosporidium parvum Iowa II,13.7 µM
SLLFKTSAGV,Kd,HLA-A*02:01 [5]; [31],21.6 nM
same,Kd,HLA-A*02:03 [6]; [27],287 nM
same,Kd,HLA-A*02:06; [27],35.8 nM
same,Kd,HLA-A*02:17; [31],820 nM
SSSNPTIEEG,Kd,HLA-B*58:01 [4]; [23],5990 nM
STHKLSLTK,IC50,HLA-A*02:01 [7]; source organism: Variola virus,≥ 255 µM
same,IC50,HLA-A*03:01 [1]; source organism: Variola virus,2.93 µM
same,IC50,HLA-A*11:01 [2]; source organism: Variola virus,193 nM
SVRDRLARL,Kd,HLA-A*02:01 [13],407 nM
same,Kd,HLA-A*02:03 [14],12.3 nM
TIMAVLFVV,Kd,HLA-A*02:01 [5]; [23],92.6 nM
same,Kd,HLA-A*02:03 [6]; [23],46.7 nM
same,Kd,HLA-A*02:06; [23],127 nM
same,Kd,HLA-A*02:17; [23],789 nM
same,Kd,HLA-A*68:02,43.4 nM
TMKEKSWLV,Kd,HLA-A*02:01 [5]; [26],54.7 nM
same,Kd,HLA-A*02:03 [6]; [27],94.6 nM
same,Kd,HLA-A*02:17; [26],40.3 nM
VQGFIFFFL,Kd,HLA-B*18:01; [32],≥ 5 µM
VSRDFDDVY,Kd,HLA-A*01:01; [33],18.6 µM
same,Kd,HLA-A*02:01 [15],≥ 20 µM
same,Kd,HLA-A*03:01 [16],≥ 20 µM
same,Kd,HLA-A*11:01 [17],≥ 20 µM
same,Kd,HLA-A*31:01 [18],≥ 20 µM
same,Kd,HLA-A*69:01 [8]; [33],≥ 20 µM
same,Kd,HLA-B*27:05,≥ 20 µM
same,Kd,HLA-B*40:01,≥ 20 µM
same,Kd,HLA-B*48:01; [33],≥ 20 µM
same,Kd,HLA-B*58:01 [19],≥ 20 µM
same,Kd,HLA-B*15:01 [11]; [34],244 nM
same,Kd,HLA-B*15:17,≥ 20 µM
same,Kd,HLA-B*57:01 [12]; [34],792 nM
YQLAVTIMAI,Kd,HLA-A*02:01 [5]; [25],32.3 nM
same,Kd,HLA-A*02:03 [6]; [25],11.2 nM
same,Kd,HLA-A*02:06; [25],11.3 nM
same,Kd,HLA-A*02:17; [25],7840 nM
same,Kd,HLA-B*15:01 [20],15.8 nM
YRNALSMMP,Kd,HLA-B*48:01; [32],≥ 20 µM
